Measured values: PMC7522082, “A simple procedure for bacterial expression and purification of the fragile X protein family”

Key:
His6-MBP-FMRP P451S [1] = target: T1, His6-MBP-FMRP P451S (Homo sapiens, UniProt Q06787 1-632, P451S); test: fluorescence anisotropy; 75 mM K+, 5 mM Mg2+; FA: 20 mM Tris pH 7.5, 75 mM KCl, 5 mM MgCl2, 1 uM BSA, 1 mM DTT, 100 ng/uL tRNA, ~5 nM RNA, RT 1 h; EMSA: 50 mM Tris pH 7.5, 145 mM KCl, 5 mM MgCl2, 1 uM BSA
[2] = target: T2, His6-MBP-FXR2P P474S and P493N (Homo sapiens, UniProt P51116 1-673, P474S;P493N); test: as above; settings: protein: recombinant; tags: N-terminal His6-MBP; label: 3' fluorescein; G-quadruplex forming
His6-MBP-FMRP P451S [3] = target: T1, His6-MBP-FMRP P451S; test: EMSA; 250 nM protein; FA: 20 mM Tris pH 7.5, 75 mM KCl, 5 mM MgCl2, 1 uM BSA, 1 mM DTT, 100 ng/uL tRNA, ~5 nM RNA, RT 1 h; EMSA: 50 mM Tris pH 7.5, 145 mM KCl, 5 mM MgCl2, 1 uM BSA
[4] = target: T2, His6-MBP-FXR2P P474S and P493N; test: as above; settings: protein: recombinant, tags: N-terminal His6-MBP

T2 sequence (P51116 whole entry P474S/P493N): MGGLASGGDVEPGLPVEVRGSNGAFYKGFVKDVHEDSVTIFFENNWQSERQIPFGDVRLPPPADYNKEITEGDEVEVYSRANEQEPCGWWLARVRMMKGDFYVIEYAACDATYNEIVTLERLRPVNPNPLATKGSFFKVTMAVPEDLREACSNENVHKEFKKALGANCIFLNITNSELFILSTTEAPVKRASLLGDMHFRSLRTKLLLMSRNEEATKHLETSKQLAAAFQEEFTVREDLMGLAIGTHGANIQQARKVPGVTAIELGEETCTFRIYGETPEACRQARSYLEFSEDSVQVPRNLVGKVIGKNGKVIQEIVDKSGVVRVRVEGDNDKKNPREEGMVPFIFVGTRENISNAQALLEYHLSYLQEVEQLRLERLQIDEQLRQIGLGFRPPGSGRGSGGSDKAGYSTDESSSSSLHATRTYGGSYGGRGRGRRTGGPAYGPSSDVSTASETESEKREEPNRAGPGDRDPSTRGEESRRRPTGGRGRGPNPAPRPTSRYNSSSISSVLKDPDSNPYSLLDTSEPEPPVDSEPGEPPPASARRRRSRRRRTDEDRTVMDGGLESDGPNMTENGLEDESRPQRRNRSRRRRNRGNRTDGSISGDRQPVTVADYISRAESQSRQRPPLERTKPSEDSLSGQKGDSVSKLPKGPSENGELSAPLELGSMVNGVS

**Q.** What does the source list for GGGGGGGGGGGGGGGGGU (structured_RNA) [poly-G17U]?
**A.** Kd (His6-MBP-FMRP P451S [1]): 5.6 nM; Kd [2]: 3.1 ± 0.4 nM

**Q.** Which results are given for GCUAUCCAGAUUCUGAUU (ssRNA) [CR1]?
**A.** binding result (His6-MBP-FMRP P451S [3]): no binding; binding result ([4]; label: 3' fluorescein, single strand, no predicted G-quadruplex): no binding

B1: ΔKC2 (structured_RNA)
RNA: GGGCGAAUUCGGGAUUCCGACCAGAAGGGGCUAAGGAAUGGUGGGACGAGCUAGCGGCUGGUAUGUGCGUCU
**Q.** Which results are given for B1?
**A.** binding result (His6-MBP-FMRP P451S [3]): binds; binding result ([4]; label: 3' fluorescein (FTSC, periodate-oxidized 3' end), loop-loop pseudoknot (kissing complex)): binds
